The text below walks through data of US20110195494A1 (Boehringer Ingelheim, published 2011).

Read-outs that look alike come from different tables or passages of the source.

Test [1] deals with T1, recombinant human DLL4, C-terminally His-tagged extracellular domain (R&D Systems) (human, UniProt Q9NR61 25-522, biotinylated where used in competition ELISA, AlphaScreen and on SA chips).
T1 construct: also called rhDLL4; hDLL4; not shown: C-terminal His tag
The test is described as follows: competition ELISA, periplasmic extract. For orientation: In an ELISA, binding on a coated surface is turned into a signal by an enzyme label.

For test [2], the target named is T1, recombinant human DLL4, C-terminally …. The test is described as follows: hDLL4/hNotch1-Fc AlphaScreen, periplasmic extract. As to the method: Periplasmic extracts are screened in a human DII4/human Notch1 AlphaScreen assay to assess the blocking capacity of the expressed VHHs. Human DII4 is biotinylated using biotin (Sigma, St Louis, Mo., USA) and biotinamidohexanoic acid 3-sulfo-N-hydroxysuccinimide ester sodium salt (Sigma, St Louis, Mo., USA). […] To evaluate the neutralizing capacity of the VHHs, dilution series of the periplasmic extracts are pre-incubated with biotinylated human DII4. To this mixture, the acceptor beads and the streptavidin donor beads are added and further incubated for 1 hour at room temperature. Fluorescence is measured by reading plates on the Envision Multilabel Plate reader (Perkin Elmer, Waltham, Mass., USA) using an excitation wavelength of 680 nm and an emission wavelength of 520 nm.

Test [3] concerns the target T2, full length human DLL4 on overexpressing CHO or HEK293 cells (human, UniProt Q9NR61 27-685).
T2 construct: also called CHO-hDLL4; HEK293-hDII4
As to the kind of experiment: FMAT, hNotch1/Fc on CHO-hDLL4, periplasmic extract. An excerpt: (§1) All calculations are based on the FL1 total signal which comprises the average of the fluorescence per well times the number of counts per well.

In test [4] the target is T3, full length mouse DLL4 on overexpressing CHO or HEK293 cells (mouse, UniProt Q9JI71 27-686).
T3 construct: whole, on cells; also called CHO-mDLL4; mDLL4
As to the kind of experiment: FMAT, hNotch1/Fc on CHO-mDLL4, periplasmic extract.
Excerpt: as §1

For test [5], the target named is T3, full length mouse DLL4 on …. As to the kind of experiment: FMAT competition: labelled hNotch1/Fc on CHO-mDLL4 cells.
Excerpt: as §1

Test [6] has as its target T4, human DLL1 (Alexis) (human, UniProt O00548 18-545, limits assumed).
T4 construct: also called hDLL1; rhDLL1
T4 sequence (looked up): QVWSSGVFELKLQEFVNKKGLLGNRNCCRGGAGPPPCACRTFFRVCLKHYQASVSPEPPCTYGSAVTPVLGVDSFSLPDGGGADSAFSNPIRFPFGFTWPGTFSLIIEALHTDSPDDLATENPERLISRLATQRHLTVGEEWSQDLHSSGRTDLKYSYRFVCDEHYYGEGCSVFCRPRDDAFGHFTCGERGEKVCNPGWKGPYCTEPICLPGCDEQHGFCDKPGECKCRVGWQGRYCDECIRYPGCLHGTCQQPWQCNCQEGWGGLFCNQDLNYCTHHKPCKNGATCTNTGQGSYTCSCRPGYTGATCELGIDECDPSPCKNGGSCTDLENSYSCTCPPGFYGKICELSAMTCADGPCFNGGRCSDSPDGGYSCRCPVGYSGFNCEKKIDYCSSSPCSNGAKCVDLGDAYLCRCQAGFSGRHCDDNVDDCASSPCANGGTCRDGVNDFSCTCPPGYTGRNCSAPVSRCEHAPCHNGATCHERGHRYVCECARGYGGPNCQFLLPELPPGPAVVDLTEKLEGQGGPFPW
The test is described as follows: binding ELISA, coated rhDLL1.

In test [7] the target is T5, human Jagged-1 (Alexis) (human, UniProt P78504 34-1067, limits assumed).
T5 construct: also called hJag-1; hJAG1
As to the kind of experiment: binding ELISA, coated rhJagged-1.

The target in test [8] is T1, recombinant human DLL4, C-terminally …. The test is described as follows: binding ELISA, coated rhDLL4.
Test [9] addresses T4, human DLL1 (Alexis). The test is described as follows: binding ELISA, coated rhDLL1. This is another data set of the same source.
Test [10] addresses T5, human Jagged-1 (Alexis). The test is described as follows: binding ELISA, coated rhJagged-1. This is another data set of the same source.

T3 sequence (Q9JI71 27-686): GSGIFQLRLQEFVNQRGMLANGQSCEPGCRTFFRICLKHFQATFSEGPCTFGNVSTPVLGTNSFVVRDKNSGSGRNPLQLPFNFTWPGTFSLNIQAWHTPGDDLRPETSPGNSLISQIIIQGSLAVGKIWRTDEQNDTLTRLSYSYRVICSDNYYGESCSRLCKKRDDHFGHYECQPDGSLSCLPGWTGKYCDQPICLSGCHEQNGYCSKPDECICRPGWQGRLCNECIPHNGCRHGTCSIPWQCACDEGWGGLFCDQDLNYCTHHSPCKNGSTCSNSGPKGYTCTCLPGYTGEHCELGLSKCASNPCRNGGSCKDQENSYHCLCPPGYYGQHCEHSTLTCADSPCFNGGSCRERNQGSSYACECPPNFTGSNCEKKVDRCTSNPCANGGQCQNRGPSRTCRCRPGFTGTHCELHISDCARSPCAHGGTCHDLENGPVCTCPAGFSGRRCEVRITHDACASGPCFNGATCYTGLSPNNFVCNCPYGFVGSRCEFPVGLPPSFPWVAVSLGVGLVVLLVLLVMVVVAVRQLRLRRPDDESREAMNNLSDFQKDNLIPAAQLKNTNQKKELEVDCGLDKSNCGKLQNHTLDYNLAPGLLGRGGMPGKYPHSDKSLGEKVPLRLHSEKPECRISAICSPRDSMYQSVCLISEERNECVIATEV
T1 sequence (Q9NR61 25-522): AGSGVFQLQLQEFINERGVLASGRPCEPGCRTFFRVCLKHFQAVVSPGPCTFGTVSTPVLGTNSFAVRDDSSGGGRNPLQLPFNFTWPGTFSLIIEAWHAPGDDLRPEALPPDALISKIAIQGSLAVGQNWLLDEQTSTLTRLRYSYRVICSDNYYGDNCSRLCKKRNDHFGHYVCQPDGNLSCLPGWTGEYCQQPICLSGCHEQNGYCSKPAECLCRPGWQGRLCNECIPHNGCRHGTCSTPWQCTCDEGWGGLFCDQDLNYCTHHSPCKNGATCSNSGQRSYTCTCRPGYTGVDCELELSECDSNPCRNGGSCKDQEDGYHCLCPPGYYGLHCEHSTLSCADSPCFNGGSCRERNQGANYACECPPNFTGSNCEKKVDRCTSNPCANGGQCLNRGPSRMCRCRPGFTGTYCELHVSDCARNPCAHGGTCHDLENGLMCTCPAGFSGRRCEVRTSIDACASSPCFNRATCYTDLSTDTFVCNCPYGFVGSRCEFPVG
T2 sequence (Q9NR61 27-685 limits assumed): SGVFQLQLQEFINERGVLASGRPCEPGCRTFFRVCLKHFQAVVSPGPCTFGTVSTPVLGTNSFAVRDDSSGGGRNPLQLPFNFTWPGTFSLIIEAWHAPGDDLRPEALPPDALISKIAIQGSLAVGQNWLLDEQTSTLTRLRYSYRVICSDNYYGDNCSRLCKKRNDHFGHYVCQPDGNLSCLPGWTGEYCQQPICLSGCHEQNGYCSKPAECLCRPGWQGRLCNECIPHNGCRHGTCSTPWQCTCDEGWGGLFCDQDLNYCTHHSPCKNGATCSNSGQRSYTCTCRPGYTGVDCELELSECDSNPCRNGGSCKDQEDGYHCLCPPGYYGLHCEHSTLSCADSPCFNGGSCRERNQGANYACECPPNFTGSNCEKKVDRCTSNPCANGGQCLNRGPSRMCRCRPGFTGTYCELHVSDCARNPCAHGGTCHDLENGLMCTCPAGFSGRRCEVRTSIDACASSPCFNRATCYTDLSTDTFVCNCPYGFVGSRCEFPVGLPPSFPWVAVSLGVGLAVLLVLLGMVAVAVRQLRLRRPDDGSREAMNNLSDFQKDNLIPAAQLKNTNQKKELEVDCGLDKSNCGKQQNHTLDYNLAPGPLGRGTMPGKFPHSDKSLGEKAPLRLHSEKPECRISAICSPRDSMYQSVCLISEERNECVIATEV

B1: DLLBII19F04 (VHH)
VHH: EVQLVESGGGLVQAEGSLRLSCAASGSTFSTYAMAWYRQAPGKQRELVAGISFDGSTHYAESVKGRFTISRDDAKNTVSLQMNSLKPEDAAVYYCYSVHPSTGFGSWGQGTQVTVSS
notes: also called DLLBII19F4; not shown: C-terminal c-myc tag and His6 tag
B1: the “ELISA hDLL4 % inhibition” value in [1] stood at 98%. Besides, in [2], the “Alpha Screen hDLL4 % inhibition” value is 95%.

B2: DLLBII83G01 (VHH)
VHH: EVQLVESGGGLVQAGGSLRLSCAASGRTFSNYIMGWFRQAPGKEREFVAGISRYADYTGYADSVKGRFTISRDNVKNTVYLRMNSLKPDDTAVYYCAANEGYCSGYGCYEDSGQYDYWGQGTQVTVSS
notes: tested as periplasmic extract; also called DLLBII83G1; not shown: C-terminal c-myc tag and His6 tag
In the case of B2, the “FMAT hDLL4 % inhibition” value in test [3] worked out at 87%. Moreover, in test [4], the “FMAT mDLL4 % inhibition” value stood at 93%. Moreover, the “IC50 (read off the curve)” value in test [5] was approximately 50 nM.

B3: DLLBII104G01 (VHH)
VHH: EVQLVESGGGLVQAGGSLRLSCAASGFTFDDYAIGWFRQAPGKEREGVSCISSSDGSTYYADSVKGRFTISSDNAKNTVYLQMNSLKPEDTAVYYCATAWCDSSWYRSFVGYWGQGTQVTVSS
notes: also called DLLBII104G1; 104G1; not shown: C-terminal c-myc tag and His6 tag
B3: in test [3], the “FMAT hDLL4 % inhibition” value is 94%. Moreover, the “FMAT mDLL4 % inhibition” value in test [4] amounted to 86%. The “IC50 (read off the curve)” value in [5] fell in the range of 64 to 70 nM.

B4: DLLBII17B03 (VHH)
VHH: EVQLVESGGGLVQPGGSLRLSCAASGFTFENYALGWFRQAPGKEREWVSCISSSDGTTYYADSVKGRFTISRDNVKNTVYLQMNRLKPEDTAIYYCALSLGSSWCAYDYWGQGTQVTVSS
notes: tested as periplasmic extract; also called DLLBII17B3; not shown: C-terminal c-myc tag and His6 tag
For B4, the “ELISA hDLL4 % inhibition” value in [1] came out at 76%. The “Alpha Screen hDLL4 % inhibition” value in test [2] is 77%.

B5: DLLBII015 (VHH)
VHH: EVQLVESGGGLVQPGGSLRLSCAASGFTIGSYDMSWVRRSPGKGPEWVSAINSGGGSTYYADYVKGRFTISRDNAKNTLYLQMNSLKPEDTAVYYCAADRYIWARQGEYWGAYAYDYWGQGTQVTVSS
notes: not shown: C-terminal c-myc tag and (His)6 tag
As to B5, the binding result in test [6] and in test [7] was “no binding (tested: 1e-6 M)” each time.

B6: DLLBII136C07 (VHH)
VHH: EVQLVESGGGLVQPGGSLRLSCAASGFTFGSYDMSWVRRSPGKGPEWVSSINSGGGSTYYADYVKGRFTISRDNAKNTLYLQMNSLKPEDTAVYYCAADRYIWARQGEYWGAYEYDYWGQGTQVTVSS
notes: as for B5
Regarding B6, the binding result in test [6] and in test [7] was “no binding (tested: 1e-6 M)” each time.

B7: DLLBII133G05 (VHH)
VHH: EVQLVESGGGLVQPGGSLRLSCAASGFTFGSYDMSWVRRSPGKGPEWVSAINSGGGSTYYTDYVKGRFTISRDNAKNTLYLQMNSLKPEDTAVYYCAADRYIWARQGEYWGAYAYDYWGQGTQVTVSS
notes: as for B5
Consider B7, for which the binding result in test [6] and in [7] was “no binding (tested: 1e-6 M)” in each case.

B8: DLLBII133A09 (VHH)
VHH: EVQLVESGGGLVQPGGSLRLSCAASGFTFGSYDMSWVRRSPGKGPEWVSAINSGGGSTYYADYVKGRFTISRDNAKNTLYLQMNSLKPEDTAVYYCAADRYIWARQGEYWGAYAYDYWGQGTQVTVSS
notes: as for B5
B8: the binding result in test [6] and in [7] was “no binding (tested: 1e-6 M)” throughout.

B9: DLLBII129B05 (VHH)
VHH: EVQLVESGGGLVQAGGSLRLSCAASGRTFSSYAMAWYRQAPGKEREYVAAIRWSGGTAYYADSVQGRFTISRDNAKNTVYLQMNSLKPEDTAVYYCANRAPDTRLAPYEYDHWGQGTQVTVSS
notes: as for B5
One may read the EC50 (read off the curve) as the concentration that produces a half-maximal response. In the case of B9, in test [8], the concentration for a half-maximal effect (EC50 (read off the curve)) is approximately 0.6 nM. In addition, the binding result in [9] and in test [10] was “no binding (tested: 1e-6 M)” each time.

B10: DLLBII129E11 (VHH)
VHH: EVQLVESGGGLVQAGGSLRLSCAASGRTFSSYAMAWYRQAPGKEREYVAAIRWSGGTAYYADSVQGRFTISRDNAKNTVYLQMNSLKPEDTAVYYCANRAPDTRLRPYLYDYWGQGTQVTVSS
notes: as for B5
Turning to B10, the “EC50 (read off the curve)” value in test [8] was approximately 0.6 nM. For the same molecule, the binding result in [9] and in test [10] was “no binding (tested: 1e-6 M)” in each case.

B11: DLLBII129D08 (VHH)
VHH: EVQLVESGGGLVQAGGSLRLSCAASGRTFSSYAMAWYRQAPGKEREYVAAIRWSGGTAYYADSVQGRFTISRDNAKNTVYLQMNSLKPEDTAVYYCANRAPDTRLEPYLYDYWGQGTQVTVSS
notes: as for B5
As to B11, in test [8], the “EC50 (read off the curve)” value is approximately 0.6 nM. The binding result in test [9] and in test [10] was “no binding (tested: 1e-6 M)” in each case.

B12: DLLBII17C01 (VHH)
VHH: EVQLVESGGGLVQAGGSLRLSCAASGFTFDDYPIGWLRQAPGKEREGVSCISSSDDSTYYADSVKGRFTISSNNAKNTVYLQMNSLKPEDTAVYYCAVRLFSGGCAVVAGTSWADFGSSGQGTQVTVSS
notes: tested as periplasmic extract; also called DLLBII17C1; not shown: C-terminal c-myc tag and His6 tag
On to B12, for which the “ELISA hDLL4 % inhibition” value in test [1] turned out to be 82%. Further, in test [2], the “Alpha Screen hDLL4 % inhibition” value worked out at 84%.

B13: DLLBII28B06 (VHH)
VHH: EVQLVESGGGLVQAGGSLRLSCAASGSTFSTYAMGWYRQDPGNQRELVAAISSDGSTHYADSVKGRFTISRDNAKNTVYLQMNSLKPEDTAVYYCYAPVKVAGLEYDYWGQGTQVTVSS
notes: tested as periplasmic extract; also called DLLBII28B6; not shown: C-terminal c-myc tag and His6 tag
B13: the “ELISA hDLL4 % inhibition” value in test [1] stood at 23%. Besides, in [2], the “Alpha Screen hDLL4 % inhibition” value was found to be 54%.

B14: DLLBII33C05 (VHH)
VHH: EVQLVESGGGLVQAGGSLRLSCAASGFTLDNYVIGWFRQAPGKEREEVSCISSSGGSTDYLDSVKGRFTISRDNAKNTVYLQMNSLKPEDTAVYYCAADSLPCYYDKMVYDYWGQGTQVTVSS
notes: tested as periplasmic extract; also called DLLBII33C5; not shown: C-terminal c-myc tag and His6 tag
B14: in test [1], the “ELISA hDLL4 % inhibition” value came to 86%. The “Alpha Screen hDLL4 % inhibition” value in [2] is 75%.

B15: DLLBII19D10 (VHH)
VHH: EVQLVESGGGLVQAGDSLRLSCAASGRTVGSYDMSWVRQGPGKEREWVSSINSGVGKTYYADSVKGRFTIFRDNAKNMVYLQMNNLKPEDTAVYYCATEMDGSRYVEGQGTQVTVSS
notes: tested as periplasmic extract; not shown: C-terminal c-myc tag and His6 tag
Regarding B15, the “ELISA hDLL4 % inhibition” value in test [1] was 98%. Further, in test [2], the “Alpha Screen hDLL4 % inhibition” value is 85%.

B16: DLLBII17G10 (VHH)
VHH: EVQLVESGGGLVQAGGSLRLSCAASGSTFSSYAMGWYRHQAPGKQRELVAAISSDGSTHYADSVKGRFTISRDNAKNTMYLQMNSLKPEDTAVYYCNTKTFGSNWYDDYWGQGTQVTVSS
notes: as for B15
Regarding B16, the “ELISA hDLL4 % inhibition” value in [1] came to 93%. In [2], the “Alpha Screen hDLL4 % inhibition” value stood at 82%.

B17: DLLBII17F10 (VHH)
VHH: EVQLVESGGGLVQAGGSLRLSCASSGRTLLNYAMGWFRQAPGKEREFVSGINWSGGSTYYADSVKGRFTISRDNAENTVYLHMNSLKPEDTAVYYCAAAHDNYWFTDDSLGRGLKYWGQGTQVTVSS
notes: not shown: C-terminal c-myc tag and His6 tag
For B17, in test [1], the “ELISA hDLL4 % inhibition” value was determined as 98%. In addition, the “Alpha Screen hDLL4 % inhibition” value in [2] worked out at 88%.

B18: DLLBII19F12 (VHH)
VHH: EVQLVESGGGLVQAGGSLRLSCTASGSTFTSYAMGWYRQAPGKQRELVAAISSDDSTYYADCVKGRFTISRDNAKNTVYLQMNSLKPEDTAVYYCNAPHSDYDEEAPSDFGSWGQGTQVTVSS
notes: as for B15
On to B18, for which, in [1], the “ELISA hDLL4 % inhibition” value was 98%. In addition, in test [2], the “Alpha Screen hDLL4 % inhibition” value was determined as 98%.
